The source of these data is paper PMC6212769, “CRISPR–Cas adaptation in Escherichia coli requires RecBCD helicase but not nuclease activity, is independent of homologous recombination, and is antagonized by 5′ ssDNA exonucleases”.

For data set [1], the target named is T1, Cas1-Cas2 complex (Escherichia coli, UniProt Q46896;P45956 1-305;1-94).
T1 sequence 1: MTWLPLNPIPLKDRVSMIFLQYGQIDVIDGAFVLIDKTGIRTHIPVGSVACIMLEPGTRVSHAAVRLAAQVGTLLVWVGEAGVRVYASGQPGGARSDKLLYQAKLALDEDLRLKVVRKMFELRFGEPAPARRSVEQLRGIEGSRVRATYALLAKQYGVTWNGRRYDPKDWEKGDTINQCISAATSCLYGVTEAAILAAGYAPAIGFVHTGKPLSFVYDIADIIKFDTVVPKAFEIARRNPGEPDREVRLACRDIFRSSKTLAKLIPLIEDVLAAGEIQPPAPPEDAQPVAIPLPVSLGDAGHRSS
T1 sequence 2: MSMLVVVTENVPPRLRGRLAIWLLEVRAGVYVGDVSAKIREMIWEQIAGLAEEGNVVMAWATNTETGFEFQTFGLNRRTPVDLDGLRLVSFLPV
Nature of the data set: EMSA; no Mg2+ added; EMSA: 20 nM DNA, 0-500 nM Cas1-Cas2, 20 mM Tris-HCl pH 8.0, BSA 100 (ug/ml), 7% glycerol, 37 C 30 min; 5% acrylamide TBE gel. As to conditions: protein: recombinant, tags: Cas1 N-terminal His6, Cas2 untagged, chain copies: 4;2, label: 5'-Cy5 on strand 1, 10 bp duplex. (In general: A gel shift assay detects complexes by their altered migration in electrophoresis.)

For data set [2], the target named is T1, Cas1-Cas2 complex. The experiment in a line: EMSA; no Mg2+ added; complex formation improved over DNA-10; EMSA: 20 nM DNA, 0-500 nM Cas1-Cas2, 20 mM Tris-HCl pH 8.0, BSA 100 (ug/ml), 7% glycerol, 37 C 30 min; 5% acrylamide TBE gel. As to conditions: protein: recombinant; tags: Cas1 N-terminal His6; Cas2 untagged; chain copies: 4;2; label: 5'-Cy5 on strand 1; 14 bp duplex, 5' overhang 36 nt.

The target of data set [3] is T1, Cas1-Cas2 complex. Nature of the data set: EMSA; no Mg2+ added; up to 500 nM; EMSA: 20 nM DNA, 0-500 nM Cas1-Cas2, 20 mM Tris-HCl pH 8.0, BSA 100 (ug/ml), 7% glycerol, 37 C 30 min; 5% acrylamide TBE gel. As to conditions: protein: recombinant; tags: Cas1 N-terminal His6; Cas2 untagged; chain copies: 4;2; label: 5'-Cy5 on strand 1; blunt.

B1: DNA-3' (3' overhang) (mixed)
DNA 1: CGGACGAACAACGAACAATGCCAACTAAAGCTCAACCCAGGTGAAACTAA
DNA 2: TGTTCGTCCG
As to B1, in the data set with Cas1-Cas2 complex [1] (3' overhang 40 nt), the binding result is on record as “binds”.

B2: DNA-10 (mixed)
DNA 1: AATCAAAGTGGACCCAACTCGAAATCAACCGTAACAAGCAACAAGCAGGC
DNA 2: GCCTGCTTGT
As to B2, the binding result with Cas1-Cas2 complex [1] (5' overhang 40 nt) is given as “binds”.

B3: DNA-14 (mixed)
DNA 1: AATCAAAGTGGACCCAACTCGAAATCAACCGTAACAAGCAACAAGCAGGC
DNA 2: GCCTGCTTGTTGCT
On to B3, for which the binding result with Cas1-Cas2 complex [2] is recorded as “binds”.

B4: Duplex (dsDNA)
DNA 1: AATCAAAGTGGACCCAACTCGAAATCAACCGTAACAAGCAACAAGCAGGC
DNA 2: GCCTGCTTGTTGCTTGTTACGGTTGATTTCGAGTTGGGTCCACTTTGATT
B4: the binding result in the data set with Cas1-Cas2 complex [3] is given as “no binding”.
